The text below walks through data of patent US20060024308A1.

Assay [1] concerns the target human TNF-α (human) (UniProt P01375). Nature of the assay: cell-based or functional assay.
The target is the same in assay [2].

Sequence of human TNF-α (human) (P01375 77-233 limits assumed): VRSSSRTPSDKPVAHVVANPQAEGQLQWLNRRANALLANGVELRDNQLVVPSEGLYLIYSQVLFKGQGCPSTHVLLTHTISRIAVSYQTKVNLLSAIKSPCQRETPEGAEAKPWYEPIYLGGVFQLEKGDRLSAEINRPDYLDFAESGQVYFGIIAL

Humira (IgG1) (antibody) displayed an Average IC50, neutralization of TNF-α cytotoxicity on L929 cells with human TNF-α (human) [1] of 23 pM. The substance also returned an ND50 (L929 cell survival, neutralisation of TNF-α cytotoxicity) with human TNF-α (human) [2] of 28 pM.
